This is an account of results in IntAct's records for PubMed 12128212.

To fix the notation:
B1: Protein daughter of sevenless (Drosophila melanogaster (Fruit fly)), Q9VZZ9 (parent)
chain: MDRTFYEGWLIKSPPTKRIWRARWRRRYFTLKQGEIPEQFCLEYYTDHNCRKLKGVIDLDQCEQVDCGLRLENRKQKFQYMFDIKTPKRTYYLAAETEADMRDWVNCICQVCHLHDTKQSNELPLGAVGADENRTQHTSSSGGLSNSTQNTTTTSLHSSAGTTAPQASVPNAGGSAQLRRPAVIEEQPMPSNAGNNNSDSVYVNTEYSNRETMLCDANFDQQELLSAAQQQPPPSPATALYLNHSALIQAQAAAAAAEQLQQQQQQAARLAVSANGVVRKLPEHLVLTQQTLAEAAAQQHSSVQASPALSTASGPYIPISECFSGSPRFLPGVPLPGADLAIPNNPTTPLNNLDPKFYDTPRSHNNIGLNLTNDQSYSPKITNLSLQQLANNNASKQRSDSDSESVFTDDDEWAHPLPLRENVDRSTRPSDSSIENESFVLTYSQRFSKMPEEGGAIVPPAEKSSKLAGAASLPEAGDQGTLDKLAKVLKNKNNLILDFKENEKIPRDLPQLSDTENTSPAIVARRNAHSAFIEESYDIPRSHQQPYYNVNQLLGERPVTSPHNSNPIAASTPNLMAADLGAVAAISAAANPGLMGEAQAVASSPTSARTLPRHCYTNAAPTKMEGNVFRYDFMEQADCPPVNRKLKPKVAGGLPVVEDKPPEEFPAKPPVGVDQLTNKLGAAQLQQPIGPPSVDRKCKPNAYKLGNSATMSPATRRSSGAPLSMVLPHETDVHSPAAANAFFHETRTLPRQQHRHHPNSPGSMSVQHQRTASAAAAMMSLTAAAAPKQQAAAQTEHKLQYFDLDVTNKPPLLNRSSMSVGNLYSQGGNGASGMRFAGVEAGGARAPVPSSVVYRSVDFVKTEAFKRIREERESSGNK

The variants in one experiment derive from B1. Conditions: with grap_drome drk.
For R644K, the “effect of a mutation on the interaction” value was “decreasing interaction strength”.
Same read-out and setting: then R644K;R696K, with “disrupting interaction strength”.
The same measure, in the same setting: then R696K, with “decreasing interaction strength”.

In another experiment the parent is B1. The settings on record: with grap_drome drk. The source holds these as a separate data set.
R644K;R696K: the “effect of a mutation on the interaction” value is listed as “disrupting interaction strength”.
